From article doi:10.1101/2020.08.27.270991 (bioRxiv, 2020)
Each block holds one binder with its values, some of them ahead of it.

What was measured:
[1] = target: full-length Thermus thermophilus MgtE (Thermus thermophilus, UniProt Q5SMG8); assay: ITC
cryo-EM structure = target: the molecule itself; assay: cryo-EM structure
cross-linking = target: the molecule itself; assay: cross-linking

- Kd [1]: 0.253 ± 0.0711 µM
B1: Fab antibody fragment Fab705 (Fab, V domains shown)
VH: EVKLQESGVELVKPGASVKISCKASGYSFTGYNMNWVKQSHGKSLEWIGNISPYYGTSIYNQNFKGKATLTVDRSSSTAYMQLNSLTSEDSAVYYCARGESFSNYEGYYAMDYWGQGTSVIVSS
VL: DVLMTQTPLSLPVSLGDQASISCRSSQSLVHSDGNTYLHWYLQKPGQSPKLLIYKVSNRFSGVPDRFSGSGSGTDFTLKISRVEAEDLGVYFCSQSTHVPWTFGGGTKLEIK

B2: full-length Thermus thermophilus MgtE (natural protein, UniProt Q5SMG8 1-450, looked up)
chain: MEEKLAVSLQEALQEGDTRALREVLEEIHPQDLLALWDELKGEHRYVVLTLLPKAKAAEVLSHLSPEEQAEYLKTLPPWRLREILEELSLDDLADALQAVRKEDPAYFQRLKDLLDPRTRAEVEALARYEEDEAGGLMTPEYVAVREGMTVEEVLRFLRRAAPDAETIYYIYVVDEKGRLKGVLSLRDLIVADPRTRVAEIMNPKVVYVRTDTDQEEVARLMADYDFTVLPVVDEEGRLVGIVTVDDVLDVLEAEATEDIHKLGAVDVPDLVYSEAGPVALWLARVRWLVILILTGMVTSSILQGFESVLEAVTALAFYVPVLLGTGGNTGNQSATLIIRALATRDLDLRDWRRVFLKEMGVGLLLGLTLSFLLVGKVYWDGHPLLLPVVGVSLVLIVFFANLVGAMLPFLLRRLGVDPALVSNPLVATLSDVTGLLIYLSVARLLLEAV
- stoichiometry N (cryo-EM structure): 2

B3: MgtE double cysteine mutant T336C/L421C (natural protein, Thermus thermophilus, UniProt Q5SMG8 1-450, looked up)
chain: MEEKLAVSLQEALQEGDTRALREVLEEIHPQDLLALWDELKGEHRYVVLTLLPKAKAAEVLSHLSPEEQAEYLKTLPPWRLREILEELSLDDLADALQAVRKEDPAYFQRLKDLLDPRTRAEVEALARYEEDEAGGLMTPEYVAVREGMTVEEVLRFLRRAAPDAETIYYIYVVDEKGRLKGVLSLRDLIVADPRTRVAEIMNPKVVYVRTDTDQEEVARLMADYDFTVLPVVDEEGRLVGIVTVDDVLDVLEAEATEDIHKLGAVDVPDLVYSEAGPVALWLARVRWLVILILTGMVTSSILQGFESVLEAVTALAFYVPVLLGTGGNTGNQSACLIIRALATRDLDLRDWRRVFLKEMGVGLLLGLTLSFLLVGKVYWDGHPLLLPVVGVSLVLIVFFANLVGAMLPFLLRRLGVDPACVSNPLVATLSDVTGLLIYLSVARLLLEAV
- binding result (cross-linking): binds
